From PMC10315065 (Journal of Innate Immunity, 2023) come the findings set out here.

One assay deals with GAPDH, J774. Nature of the assay: GAPDH activity in cell lysate. Type of assay: cell-based, mouse.
Another assay deals with cell surface GAPDH, J774. Type of assay: cell-based, mouse. The note with it: IFNγ 100 ng/mL, 24 h; n = 3.
The subject of a further assay is P2X7, THP-1. Type of assay: cell-based. Particulars: IFNγ; empty vector vs GAPDH knockdown; n = 3.
Assay [1] has as its system cell surface GAPDH, THP-1. Type of assay: cell-based. Particulars: IFNγ; empty vector vs GAPDH knockdown; n = 3.

B1: IFNγ: recombinant mouse IFNγ (PeproTech #315-05) (protein, UniProt P01580 23-155, looked up)
Interferon gamma: HGTVIESLESLNNYFNSSGIDVEEKSLFLDIWRNWQKDGDMKILQSQIISFYLRLFEVLKDNQAISNNISVIESHLITTFFSNSKAKKDAFMSIAKFEVNNPQVQRQAFNELIRVVHQLLPESSLRKRKRSRC
As for B1, the GAPDH activity result with GAPDH, J774 (IFNγ 100 ng/mL, 24 h) is “enhanced GAPDH activity”. For the same molecule, the “total cellular GAPDH” value in the assay with GAPDH, J774 (IFNγ treatment, Fig. 1i) is recorded as “significant increase in total cellular GAPDH”. Moreover, the “increase in cell surface GAPDH localization” value with cell surface GAPDH, J774 is reported as roughly 50%. Further, the “surface P2X7 expression” value with P2X7, THP-1 is recorded as “surface expression of P2X7 continued to be elevated irrespective of GAPDH K/D”. Besides, the “GAPDH recruitment on the cell surface, WT and GAPDH K/D” value in assay [1] was “enhanced GAPDH recruitment on the cell surface of WT cells but failed to do so in GAPDH K/D cells”.
